Assay results reported in US20250320281A1.

Key:
Test in all cases: cell-based or functional assay
[1] = target: HIV-1 Env of isolate 92UG005 (clade D pseudovirus) (HIV-1)
[2] = target: HIV-1 Env of isolate CAAN.A2 (Acute), clade B, on pseudovirus (HIV-1)
[3] = target: HIV-1 Env of isolate MGRM-D-018 (clade D pseudovirus) (HIV-1)
[4] = target: HIV-1 Env of pseudovirus MGRM-AE-003 (clade CRF01_AE) (HIV-1)
[5] = target: HIV-1 Env of pseudovirus MGRM-AE-006 (clade CRF01_AE) (HIV-1)
[6] = target: HIV-1 Env of pseudovirus MGRM-AE-008 (clade CRF01_AE) (HIV-1)
[7] = target: HIV-1 Env of pseudovirus MGRM-Chronic-B-020 (HIV-1)
[8] = target: HIV-1 Env of pseudovirus MGRM-F1-021 (HIV-1)
[9] = target: HIV-1 Env of pseudovirus MGRM-G-011 (HIV-1, clade G isolate MGRM-G-011)
[10] = target: HIV-1 envelope glycoprotein (Env) of isolate 92RW026, clade A (HIV-1)
[11] = target: HIV-1 envelope glycoprotein (Env) of isolate 94KE105, listed under clade A (HIV-1)
[12] = target: HIV-1 envelope glycoprotein (Env) of isolate MGRM-A-004, clade A (HIV-1)
[13] = target: HIV-1 envelope glycoprotein (Env) of isolate MGRM-A-008, clade A (HIV-1)
[14] = target: envelope protein of aMLV pseudovirus (negative control)
[15] = target: HIV-1 92BR020 Env (pseudovirus) (HIV-1)
[16] = target: HIV-1 93UG077 Env (pseudovirus) (HIV-1)
[17] = target: HIV-1 93UG077 Env (pseudovirus, clade A) (HIV-1)
[18] = target: HIV-1 APV17 Env (pseudovirus) (HIV-1)
[19] = target: HIV-1 Env of isolate 93TH305 (subtype B pseudovirus) (HIV-1)
[20] = target: HIV-1 Env of isolate MGRM-AG-011 (HIV-1)
[21] = target: HIV-1 Env of isolate MGRM-Chronic-B-002 (subtype B pseudovirus) (HIV-1)
[22] = target: HIV-1 Env of isolate MGRM-Chronic-B-008 (subtype B pseudovirus) (HIV-1)
[23] = target: HIV-1 Env of isolate MGRM-Chronic-B-020 (subtype B pseudovirus) (HIV-1)
[24] = target: HIV-1 Env of isolate MGRM-D-024 (pseudovirus) (HIV-1)
[25] = target: HIV-1 Env of isolate MGRM-D-028 (pseudovirus) (HIV-1)
[26] = target: HIV-1 Env of isolate MGRM-F1-016 (HIV-1)
[27] = target: HIV-1 Env of isolate MGRM-F1-020 (HIV-1)
[28] = target: HIV-1 Env of isolate MGRM-F1-022 (HIV-1)
[29] = target: HIV-1 Env of isolate NL43 (subtype B pseudovirus) (HIV-1)
[30] = target: HIV-1 MGRM-C-026 Env (pseudovirus, clade C) (HIV-1)
[31] = target: HIV-1 MGRM-D-001 Env (pseudovirus) (HIV-1)
[32] = target: HIV-1 NL43 Env (pseudovirus, clade B) (HIV-1)

Sequence of 1443_C16 (PG16) (TCN-116) (antibody) (VH): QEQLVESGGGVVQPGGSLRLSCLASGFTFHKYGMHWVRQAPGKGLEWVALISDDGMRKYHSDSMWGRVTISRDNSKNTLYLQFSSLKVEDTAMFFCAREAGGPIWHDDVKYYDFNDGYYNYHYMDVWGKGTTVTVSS
Sequence of 1443_C16 (PG16) (TCN-116) (antibody) (VL): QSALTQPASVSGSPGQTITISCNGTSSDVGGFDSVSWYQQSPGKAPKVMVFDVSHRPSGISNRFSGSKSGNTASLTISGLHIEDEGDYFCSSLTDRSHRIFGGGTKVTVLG

Substance	IC50 (µg/ml), pseudovirus neutralization [1]	IC50 (µg/ml), pseudovirus neutralization [2]	IC50 (µg/ml), pseudovirus neutralization [3]	IC50 [4]	IC50 [5]	IC50 [6]	IC50 (µg/ml), pseudovirus neutralization [7]	IC50 (µg/ml), pseudovirus neutralization [8]	IC50 (µg/ml), pseudovirus neutralization [9]	IC50 (µg/ml), pseudovirus neutralization [10]	IC50 (µg/ml), pseudovirus neutralization [11]	IC50 (µg/ml), pseudovirus neutralization [12]	IC50 (µg/ml), pseudovirus neutralization [13]	IC50 (µg/ml), pseudovirus neutralization [14]	neutralization IC50 (pseudovirus) [15]	neutralization IC50 (pseudovirus) [16]	IC50 neutralization [17]	neutralization IC50 (pseudovirus) [18]	IC50 (µg/mL), pseudovirus neutralization [19]	IC50 [20]	other results
2F5 (antibody)	8.61 µg/mL	23.1 µg/mL	4.05 µg/mL	0.24 µg/mL	0.18 µg/mL	> 50 µg/mL	0.78 µg/mL	1.37 µg/mL	1.16 µg/mL	8.63 µg/mL	> 50 µg/mL	7.49 µg/mL	> 50 µg/mL	> 50 µg/mL	–	–	–	–	–	–	–
2G12 (antibody)	> 50 µg/mL	> 50 µg/mL	0.12 µg/mL	> 50 µg/mL	> 50 µg/mL	> 50 µg/mL	0.2 µg/mL	14.1 µg/mL	> 50 µg/mL	17.2 µg/mL	7.22 µg/mL	> 50 µg/mL	> 50 µg/mL	> 50 µg/mL	–	–	–	–	–	–	–
4E10 (antibody)	7.46 µg/mL	17.9 µg/mL	3.9 µg/mL	0.34 µg/mL	0.23 µg/mL	0.94 µg/mL	2.45 µg/mL	1.87 µg/mL	1.44 µg/mL	12.9 µg/mL	7.63 µg/mL	3.14 µg/mL	7.59 µg/mL	> 50 µg/mL	–	–	–	–	–	–	–
1443_C16 (PG16) (TCN-116) (antibody)	> 50 µg/mL	8.83 µg/mL	0.004 µg/mL	0.03 µg/mL	0.03 µg/mL	3.25 µg/mL	> 50 µg/mL	> 50 µg/mL	0.04 µg/mL	0.03 µg/mL	6.13 µg/mL	0.04 µg/mL	> 50 µg/mL	> 50 µg/mL	–	–	–	–	–	–	–
1495_C14 (PGC14) (antibody)	> 50 µg/mL	> 50 µg/mL	> 50 µg/mL	> 50 µg/mL	> 50 µg/mL	> 50 µg/mL	> 50 µg/mL	46 µg/mL	> 50 µg/mL	> 50 µg/mL	> 50 µg/mL	> 50 µg/mL	> 50 µg/mL	> 50 µg/mL	–	–	–	–	–	–	–
4858_P08 (PGT-123) (antibody)	–	–	–	–	–	–	–	–	–	–	–	–	–	–	0.013 µg/mL	0.0303 µg/mL	0.0303 µg/mL	0.18 µg/mL	0.008 µg/mL	> 50 µg/mL	IC50 (µg/mL), pseudovirus neutralization [21]: 0.234 µg/mL; IC50 (µg/mL), pseudovirus neutralization [22]: 0.01 µg/mL; IC50 (µg/mL), pseudovirus neutralization [23]: 0.005 µg/mL; IC50, pseudovirus neutralization [24]: 0.023 µg/mL; IC50, pseudovirus neutralization [25]: 0.132 µg/mL; IC50 (µg/mL), pseudovirus neutralization [26]: 4.95 µg/mL; IC50 (µg/mL), pseudovirus neutralization [27]: 0.051 µg/mL; IC50 (µg/mL), pseudovirus neutralization [28]: 0.075 µg/mL; IC50 (µg/mL), pseudovirus neutralization [29]: > 50 µg/mL; IC50 neutralization [30]: 0.0031 µg/mL; neutralization IC50 (pseudovirus) [31]: 0.215 µg/mL; IC50 neutralization [32]: > 10 µg/mL
4877_D15 (PGT-122) (antibody)	–	–	–	–	–	–	–	–	–	–	–	–	–	–	0.0337 µg/mL	0.191 µg/mL	0.191 µg/mL	0.522 µg/mL	0.013 µg/mL	> 50 µg/mL	IC50 (µg/mL), pseudovirus neutralization [21]: 1.8 µg/mL; IC50 (µg/mL), pseudovirus neutralization [22]: 0.017 µg/mL; IC50 (µg/mL), pseudovirus neutralization [23]: 0.005 µg/mL; IC50, pseudovirus neutralization [24]: 0.185 µg/mL; IC50, pseudovirus neutralization [25]: 3.34 µg/mL; IC50 (µg/mL), pseudovirus neutralization [26]: 4.81 µg/mL; IC50 (µg/mL), pseudovirus neutralization [27]: 0.321 µg/mL; IC50 (µg/mL), pseudovirus neutralization [28]: 0.277 µg/mL; IC50 (µg/mL), pseudovirus neutralization [29]: > 50 µg/mL; IC50 neutralization [30]: 0.0089 µg/mL; neutralization IC50 (pseudovirus) [31]: 0.867 µg/mL; IC50 neutralization [32]: > 10 µg/mL
5123_A06 (PGT-125) (antibody)	–	–	–	–	–	–	–	–	–	–	–	–	–	–	0.0214 µg/mL	0.0262 µg/mL	0.0262 µg/mL	7.31 µg/mL	0.008 µg/mL	> 50 µg/mL	IC50 (µg/mL), pseudovirus neutralization [21]: 0.064 µg/mL; IC50 (µg/mL), pseudovirus neutralization [22]: > 50 µg/mL; IC50 (µg/mL), pseudovirus neutralization [23]: 0.087 µg/mL; IC50, pseudovirus neutralization [24]: > 50 µg/mL; IC50, pseudovirus neutralization [25]: > 50 µg/mL; IC50 (µg/mL), pseudovirus neutralization [26]: > 50 µg/mL; IC50 (µg/mL), pseudovirus neutralization [27]: > 50 µg/mL; IC50 (µg/mL), pseudovirus neutralization [28]: > 50 µg/mL; IC50 (µg/mL), pseudovirus neutralization [29]: > 50 µg/mL; IC50 neutralization [30]: 0.0106 µg/mL; neutralization IC50 (pseudovirus) [31]: 2.31 µg/mL; IC50 neutralization [32]: > 10 µg/mL
5141_B17 (PGT-126) (antibody)	–	–	–	–	–	–	–	–	–	–	–	–	–	–	0.0163 µg/mL	0.0256 µg/mL	0.0256 µg/mL	0.501 µg/mL	0.013 µg/mL	24.5 µg/mL	IC50 (µg/mL), pseudovirus neutralization [21]: 0.078 µg/mL; IC50 (µg/mL), pseudovirus neutralization [22]: 5.89 µg/mL; IC50 (µg/mL), pseudovirus neutralization [23]: 0.021 µg/mL; IC50, pseudovirus neutralization [24]: 0.376 µg/mL; IC50, pseudovirus neutralization [25]: > 50 µg/mL; IC50 (µg/mL), pseudovirus neutralization [26]: > 50 µg/mL; IC50 (µg/mL), pseudovirus neutralization [27]: > 50 µg/mL; IC50 (µg/mL), pseudovirus neutralization [28]: > 50 µg/mL; IC50 (µg/mL), pseudovirus neutralization [29]: > 50 µg/mL; IC50 neutralization [30]: 0.0076 µg/mL; neutralization IC50 (pseudovirus) [31]: 0.0639 µg/mL; IC50 neutralization [32]: > 10 µg/mL
b12 (antibody)	> 50 µg/mL	> 50 µg/mL	1.39 µg/mL	> 50 µg/mL	> 50 µg/mL	> 50 µg/mL	6.16 µg/mL	> 50 µg/mL	> 50 µg/mL	> 50 µg/mL	> 50 µg/mL	> 50 µg/mL	> 50 µg/mL	> 50 µg/mL	–	–	–	–	–	–	–
